Data taken from publication PMC11966277.
Substitutions are numbered along the chain they refer to. In names and notes the source's numbering stands.

B1: Oxalate decarboxylase (OxDC) (Bacillus subtilis subsp. subtilis str. 168; H279D/T263E) (protein)
chain: MKKQNDIPQPIRGDKGATVKIPRNIERDRQNPDMLVPPETDHGTVSNMKFSFSDTHNRLEKGGYAREVTVRELPISENLASVNMRLKPGAIRELHWHKEAEWAYMIYGSARVTIVDEKGRSFIDDVGEGDLWYFPSGLPHSIQALEEGAEFLLVFDDGSFSENSTFQLTDWLAHTPKEVIAANFGVTKEEISNLPGKEKYIFENQLPGSLKDDIVEGPNGEVPYPFTYRLLEQEPIESEGGKVYIADSTNFKVSKTIASALVEVEPGAMRELHWHPNTDEWQYYISGKARMTVFASDGHARTFNYQAGDVGYVPFAMGHYVENIGDEPLVFLEIFKDDHYADVSLNQWLAMLPETFVQAHLDLGKDFTDVLSKEKHPVVKKKCSK
B2: Oxalate decarboxylase (OxDC) (Bacillus subtilis subsp. subtilis str. 168; I191F) (protein)
chain: B1 chain with I191F, E263T, D279H
B3: Oxalate decarboxylase (OxDC) (Bacillus subtilis subsp. subtilis str. 168; Y244R) (protein)
chain: B1 chain with Y244R, E263T, D279H
B4: Oxalate decarboxylase (OxDC) (Bacillus subtilis subsp. subtilis str. 168) (protein)
chain: B1 chain with E263T, D279H
B5: Oxalate decarboxylase (OxDC) (Bacillus subtilis subsp. subtilis str. 168; I191F/T263E) (protein)
chain: B1 chain with I191F, D279H
B6: Oxalate decarboxylase (OxDC) (Bacillus subtilis subsp. subtilis str. 168; H279D/I191F) (protein)
chain: B1 chain with I191F, E263T
B7: Oxalate decarboxylase (OxDC) (Bacillus subtilis subsp. subtilis str. 168; H279D) (protein)
chain: B1 chain with E263T

Substrate: O=C(O)C(=O)O
Experiment: purified protein
Details: pH 4.2 (optimum), 52 mM sodium acetate, 140 mM NaCl, 37 °C, potassium oxalate 0-150 mM, Mn enzyme

Protein | Km [mM] | kcat [s⁻¹] | kcat/Km [M⁻¹ s⁻¹]
B1 | 5 ± 1 | 111 | 22000
B2 | 7 ± 2 | 101 | 14000
B3 | 5 ± 1 | 95 | 19000
B4 | 7 ± 2 | 103 | 15000
B5 | 5 ± 1 | 37 | 7000
B6 | 5 ± 2 | 110 | 22000
B7 | 6 ± 2 | 58 | 10000
